Bridge positions count the residues as written; N and C are the ends. Ends that are not written are not given here. GdT = GdDTPA-thiourea
Key:
[1] = target: human collagen type I (acid soluble, extracted from placenta, Sigma C7774) (human) (UniProt P02452); assay: dried collagen assay, 5 uM each
[2] = target: rat collagen (acid soluble, type I, rat tail, Upstate 08-115) (rat) (UniProt P02454); assay: dried collagen assay, 5 uM each
rat collagen (acid soluble, type I, rat tail, Upstate 08-115) (rat), sequence (P02454 152-1207, chain 1 of 2): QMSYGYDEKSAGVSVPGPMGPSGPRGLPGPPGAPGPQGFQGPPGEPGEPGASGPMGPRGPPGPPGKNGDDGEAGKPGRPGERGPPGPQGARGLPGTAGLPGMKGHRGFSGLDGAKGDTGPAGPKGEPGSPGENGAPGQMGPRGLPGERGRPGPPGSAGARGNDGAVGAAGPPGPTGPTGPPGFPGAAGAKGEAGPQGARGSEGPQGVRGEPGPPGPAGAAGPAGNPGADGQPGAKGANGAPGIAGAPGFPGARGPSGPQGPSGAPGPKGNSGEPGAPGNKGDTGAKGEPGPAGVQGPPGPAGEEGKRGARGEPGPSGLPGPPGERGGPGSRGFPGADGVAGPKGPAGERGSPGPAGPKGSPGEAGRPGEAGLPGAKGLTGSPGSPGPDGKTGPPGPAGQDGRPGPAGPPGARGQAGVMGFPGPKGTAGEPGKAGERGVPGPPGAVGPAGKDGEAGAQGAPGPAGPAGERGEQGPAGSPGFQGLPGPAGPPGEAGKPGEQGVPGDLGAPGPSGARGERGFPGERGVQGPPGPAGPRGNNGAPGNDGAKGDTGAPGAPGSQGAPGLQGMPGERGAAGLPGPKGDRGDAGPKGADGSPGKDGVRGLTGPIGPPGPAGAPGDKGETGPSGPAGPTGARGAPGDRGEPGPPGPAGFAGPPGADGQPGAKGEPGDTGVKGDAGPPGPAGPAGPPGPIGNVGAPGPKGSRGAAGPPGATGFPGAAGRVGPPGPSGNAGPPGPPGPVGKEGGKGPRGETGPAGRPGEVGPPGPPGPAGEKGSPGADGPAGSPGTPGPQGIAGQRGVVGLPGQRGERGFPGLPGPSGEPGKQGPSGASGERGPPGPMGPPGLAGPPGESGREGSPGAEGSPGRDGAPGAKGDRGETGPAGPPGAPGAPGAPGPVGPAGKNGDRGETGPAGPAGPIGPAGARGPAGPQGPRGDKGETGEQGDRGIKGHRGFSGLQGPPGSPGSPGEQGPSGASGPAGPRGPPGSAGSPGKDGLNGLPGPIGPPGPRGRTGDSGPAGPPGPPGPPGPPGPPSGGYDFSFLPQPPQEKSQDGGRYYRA
rat collagen (acid soluble, type I, rat tail, Upstate 08-115) (rat), sequence (P02466 86-1125, chain 2 of 2, further chain): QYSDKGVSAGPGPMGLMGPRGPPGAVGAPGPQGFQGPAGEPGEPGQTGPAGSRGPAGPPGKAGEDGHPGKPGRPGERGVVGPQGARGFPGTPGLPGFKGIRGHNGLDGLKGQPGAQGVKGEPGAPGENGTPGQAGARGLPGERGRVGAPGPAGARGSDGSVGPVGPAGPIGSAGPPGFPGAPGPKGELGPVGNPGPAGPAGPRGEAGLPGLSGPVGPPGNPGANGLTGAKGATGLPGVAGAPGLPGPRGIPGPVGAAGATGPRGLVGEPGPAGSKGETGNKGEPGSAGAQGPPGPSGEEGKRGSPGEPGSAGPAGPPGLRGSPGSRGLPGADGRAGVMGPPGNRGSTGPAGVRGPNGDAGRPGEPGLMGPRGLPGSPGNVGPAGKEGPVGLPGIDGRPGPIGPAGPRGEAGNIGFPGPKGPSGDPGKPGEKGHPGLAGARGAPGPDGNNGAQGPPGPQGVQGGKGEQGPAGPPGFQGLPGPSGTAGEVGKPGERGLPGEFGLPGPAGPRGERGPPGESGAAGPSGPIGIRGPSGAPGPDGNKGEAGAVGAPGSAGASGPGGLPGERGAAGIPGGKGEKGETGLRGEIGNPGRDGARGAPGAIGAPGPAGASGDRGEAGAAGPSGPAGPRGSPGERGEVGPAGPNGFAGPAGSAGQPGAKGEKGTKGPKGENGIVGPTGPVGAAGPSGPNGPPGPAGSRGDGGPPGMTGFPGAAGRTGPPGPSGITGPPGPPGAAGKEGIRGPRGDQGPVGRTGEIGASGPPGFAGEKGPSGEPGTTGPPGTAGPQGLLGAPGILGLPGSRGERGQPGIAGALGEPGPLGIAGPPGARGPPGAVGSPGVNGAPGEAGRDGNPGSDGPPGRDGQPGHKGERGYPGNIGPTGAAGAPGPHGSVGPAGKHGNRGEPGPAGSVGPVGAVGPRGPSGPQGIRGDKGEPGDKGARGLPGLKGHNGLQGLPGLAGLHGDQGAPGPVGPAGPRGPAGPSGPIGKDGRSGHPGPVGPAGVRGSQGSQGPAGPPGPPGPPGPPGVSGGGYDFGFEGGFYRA

human collagen type I (acid soluble, extracted from placenta, Sigma C7774) (human), sequence (P02452 162-1218 limits assumed, chain 1 of 2): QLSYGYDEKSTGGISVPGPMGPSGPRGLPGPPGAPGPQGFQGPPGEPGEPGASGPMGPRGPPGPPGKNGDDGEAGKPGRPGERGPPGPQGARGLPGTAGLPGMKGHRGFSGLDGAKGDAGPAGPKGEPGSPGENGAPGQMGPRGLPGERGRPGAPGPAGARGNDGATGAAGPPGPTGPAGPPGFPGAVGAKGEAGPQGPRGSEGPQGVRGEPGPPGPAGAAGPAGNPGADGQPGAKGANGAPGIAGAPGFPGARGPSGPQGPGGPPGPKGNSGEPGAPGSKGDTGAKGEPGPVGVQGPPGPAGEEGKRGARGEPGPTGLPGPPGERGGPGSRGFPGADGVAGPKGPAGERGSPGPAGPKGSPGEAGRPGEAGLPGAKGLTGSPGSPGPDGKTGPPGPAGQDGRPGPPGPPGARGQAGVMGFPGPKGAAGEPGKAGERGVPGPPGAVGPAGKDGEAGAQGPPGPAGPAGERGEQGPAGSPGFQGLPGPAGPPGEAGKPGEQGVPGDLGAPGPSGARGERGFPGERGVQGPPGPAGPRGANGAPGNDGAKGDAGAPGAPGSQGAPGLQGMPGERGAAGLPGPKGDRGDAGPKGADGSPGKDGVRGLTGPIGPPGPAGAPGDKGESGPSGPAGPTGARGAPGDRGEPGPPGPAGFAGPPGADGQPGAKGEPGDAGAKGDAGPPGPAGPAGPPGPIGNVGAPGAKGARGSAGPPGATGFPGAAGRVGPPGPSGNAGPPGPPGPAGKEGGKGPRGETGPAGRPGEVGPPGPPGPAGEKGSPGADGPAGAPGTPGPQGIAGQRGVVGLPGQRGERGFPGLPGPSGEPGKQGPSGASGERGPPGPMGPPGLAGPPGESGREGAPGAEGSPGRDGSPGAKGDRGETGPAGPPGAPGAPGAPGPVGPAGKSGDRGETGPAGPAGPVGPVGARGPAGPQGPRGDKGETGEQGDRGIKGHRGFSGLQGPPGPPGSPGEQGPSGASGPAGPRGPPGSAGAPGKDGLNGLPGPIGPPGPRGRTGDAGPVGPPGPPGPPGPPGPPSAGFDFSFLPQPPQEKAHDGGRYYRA
human collagen type I (acid soluble, extracted from placenta, Sigma C7774) (human), sequence (P08123 80-1119 limits assumed, chain 2 of 2, further chain): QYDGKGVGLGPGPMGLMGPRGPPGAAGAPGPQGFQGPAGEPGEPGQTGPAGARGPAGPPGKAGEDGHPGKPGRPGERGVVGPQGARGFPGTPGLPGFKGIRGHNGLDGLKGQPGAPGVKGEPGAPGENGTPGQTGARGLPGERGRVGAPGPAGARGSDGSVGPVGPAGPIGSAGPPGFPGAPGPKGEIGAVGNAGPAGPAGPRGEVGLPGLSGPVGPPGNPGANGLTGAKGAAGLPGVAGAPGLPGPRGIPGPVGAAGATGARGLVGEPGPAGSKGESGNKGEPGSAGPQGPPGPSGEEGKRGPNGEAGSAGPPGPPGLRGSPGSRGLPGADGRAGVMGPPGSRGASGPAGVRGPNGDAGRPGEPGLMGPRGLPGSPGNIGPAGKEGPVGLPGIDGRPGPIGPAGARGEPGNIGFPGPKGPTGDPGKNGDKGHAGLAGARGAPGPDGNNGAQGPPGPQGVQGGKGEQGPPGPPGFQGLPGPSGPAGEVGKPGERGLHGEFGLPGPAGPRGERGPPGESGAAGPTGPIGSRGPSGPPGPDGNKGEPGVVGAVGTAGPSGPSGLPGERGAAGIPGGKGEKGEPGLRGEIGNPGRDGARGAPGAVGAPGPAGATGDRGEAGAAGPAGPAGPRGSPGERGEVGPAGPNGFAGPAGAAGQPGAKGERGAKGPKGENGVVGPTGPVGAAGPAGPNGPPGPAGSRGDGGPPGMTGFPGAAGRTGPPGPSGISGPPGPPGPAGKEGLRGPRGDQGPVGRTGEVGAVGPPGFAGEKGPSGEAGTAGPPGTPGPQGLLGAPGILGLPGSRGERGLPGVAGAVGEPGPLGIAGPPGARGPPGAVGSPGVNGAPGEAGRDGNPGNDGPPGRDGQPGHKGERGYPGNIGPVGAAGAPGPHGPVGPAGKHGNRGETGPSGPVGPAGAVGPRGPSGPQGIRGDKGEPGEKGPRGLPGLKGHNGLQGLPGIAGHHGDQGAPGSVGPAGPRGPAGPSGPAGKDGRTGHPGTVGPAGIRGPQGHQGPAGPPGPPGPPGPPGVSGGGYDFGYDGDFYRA

Binder | Human binding [1] [%] | Rat binding [2] [%]
GKWHCYTYFPHHYCVYYK [Compound ID 975] | 70 | 64
AWHCTTRFPAHYCLYG [Compound ID 937] | 11 | 14
GKWHCYTYFPHHYCLYGK [Compound ID 996] | 76 | 67
GdT-GQWHCYTYFPHHYCLYGK (disulfide 5-14 (inferred); not fully specified (residue 18, C-terminus)) [Compound ID 994] | 86 | 84
GKWHCYTYFPYHYCLYG [Compound ID 964] | 88 | 86
GKWHCYTKFPHHYCVYG [Compound ID 978] | 64 | 66
GQWHCTTRFPKHYCLYG [Compound ID 958] | 45 | 33
GKWHCYTYFPHHYCVYY [Compound ID 945] | 83 | 82
GKWHCYTYFPHHYCLYFK [Compound ID 985] | 56 | 68
GKWHCTTYFPYHYCLYG [Compound ID 946] | 71 | 68
KKGQWHCTTYFPHHYCLYG [Compound ID 960] | 30 | 34
GKWHCTTYFPHYYCLYG [Compound ID 947] | 64 | 57
GFKWHCTTYFPHHYCLYG [Compound ID 983] | 58 | 59
GKWHCTTYFPHHVCLYG [Compound ID 965] | 26 | 11
GQWHCTTRFAHHYCLYG [Compound ID 938] | 16 | 13
GdT-GQWHCYTKFPHHYCLYGK (disulfide 5-14 (inferred); not fully specified (residues 8, 18, C-terminus)) [Compound ID 993] | 75 | 70
GKWHCYTYFPHHYCLYVK [Compound ID 989] | 67 | 74
GKWHCTTYFPHHFCLYG [Compound ID 972] | 3 | 0
GKWHCTTYFPTHYCLYG [Compound ID 962] | 20 | 10
GKWHCYTKFPHHYCVYY [Compound ID 979] | 87 | 86
GKWHCTTYFPHHYCLYYK [Compound ID 976] | 62 | 57
GQWHCTDRFPHHYCLYG [Compound ID 936] | 9 | 5
GQWKCTTRFPHHYCLYG [Compound ID 956] | 39 | 15

Further lines, results first:

Human binding [1] [%] | Rat binding [2] [%] | Binder
25 | 17 | GKWHCTTYFPHWYCLYG [Compound ID 948]
92 | 89 | GKWHCYTKFPHHYCVYYY [Compound ID 1010]
9 | 8 | GQWHCTKRFPHHYCLYG [Compound ID 940]
67 | 69 | GHKWHCTTYFPHHYCLYG [Compound ID 984]
71 | 69 | GKWHCYTYFPHHYCVYGK [Compound ID 974]
72 | 79 | GKWHCTTYFPHHYCLYY [Compound ID 949]
23 | 11 | GKWHCYKYFPHHYCLYG [Compound ID 991]
42 | 39 | GQWHCKTRFPHHYCLYG [Compound ID 957]
73 | 81 | GYKWHCTTYFPHHYCLYG [Compound ID 981]
40 | 47 | GVKWHCTTYFPHHYCLYG [Compound ID 982]
70 | 83 | GQWHCTTRFPHHYCFYG [Compound ID 931]
82 | 91 | GKWHCYTYFPYHYCVYG [Compound ID 963]
85 | 80 | GKWHCTTKFPHHYCLYY [Compound ID 980]
14 | 8 | GKWHCTTLFPHHVCLYG [Compound ID 966]
94 | 93 | GKWHCYTKFPYHYCVYY [Compound ID 1011]
51 | 42 | GKWHCYTKFPHHYCLYGK [Compound ID 995]
78 | 67 | GKWHCTTYFPHHYCVYG [Compound ID 942]
59 | 62 | GKWYCTTYFPHHYCLYG [Compound ID 990]
